Measured values: paper PMC6456722, “Internal cleavage and synergy with twisted gastrulation enhance BMP inhibition by BMPER” (Matrix Biology, 2019)

B1: twisted gastrulation (Tsg) (natural protein, human, UniProt Q9GZX9 26-223, looked up)
chain: CNKALCASDVSKCLIQELCQCRPGEGNCSCCKECMLCLGALWDECCDCVGMCNPRNYSDTPPTSKSTVEELHEPIPSLFRALTEGDTQLNWNIVSFPVAEELSHHENLVSFLETVNQPHHQNVSVPSNNVHAPYSSDKEHMCTVVYFDDCMSIHQCKISCESMGASKYRWFHNACCECIGPECIDYGSKTVKCMNCMF
notes: twisted gastrulation (Tsg)
B2: chordin vWFC2-3 (domain or fragment, UniProt Q9H2X0 703-850, looked up)
chain: NTCFFEGQQRPHGARWAPNYDPLCSLCTCQRRTVICDPVVCPPPSCPHPVQAPDQCCPVCPEKQDVRDLPGLPRSRDPGEGCYFDGDRSWRAAGTRWHPVVPPFGLIKCAVCTCKGGTGEVHCEKVQCPRLACAQPVRVNPTDCCKQC
notes: chordin, domains vWFC2-3
B3: full-length BMP-binding endothelial cell precursor-derived regulator (FL-BMPER) (natural protein)
chain: not shown
modifications: N-glycosylated (five predicted N-glycosylation sites)
notes: BMPER, human, full length, based on NCBI NM_133468.4; five vWFC domains, one vWFD domain, one TIL domain; His tag is thrombin cleavable; The protein is internally cleaved at the G368DPH371 site; the two fragments stay joined by the disulphide C364-C497; also called full length BMPER; Crossveinless-2 (CV2) in other species

Key:
[1] = molecular target: B3; assay: SPR; ProteOn XPR36; Tsg immobilised on a GLC chip by amine coupling; FL-BMPER (0-150 nM) or N-BMPER (0-50 nM) as analytes; 10 mM phosphate pH 7.4, 137 mM NaCl, 2.7 mM KCl, 0.005% Tween-20, 25 °C; KD of FL-BMPER by equilibrium analysis, of N-BMPER by Langmuir 1:1 model; conditions: both partners purified
[2] = molecular target: T1, N-BMPER (N-terminal five vWFC domains of human BMPER) (human, UniProt Q8N8U9 40-358, N-glycosylated (four predicted sites in the vWFC domains)); assay: as above; conditions: both partners purified
T1 construct: BMPER, human, the N-terminal five vWFC domains (vWFC1-5), based on NCBI NM_133468.4; His tag is thrombin cleavable; also called C-terminally truncated N-BMPER

[3] = molecular target: T1, N-BMPER (N-terminal five vWFC domains …); assay: SPR; chordin vWFC2-3 immobilised, N-BMPER in solution phase; Langmuir 1:1 model; conditions: both partners purified
[4] = molecular target: the molecule itself; assay: AUC; sedimentation velocity, 230 nm, 45000 rpm, 20 °C

T1 sequence (Q8N8U9 40-358): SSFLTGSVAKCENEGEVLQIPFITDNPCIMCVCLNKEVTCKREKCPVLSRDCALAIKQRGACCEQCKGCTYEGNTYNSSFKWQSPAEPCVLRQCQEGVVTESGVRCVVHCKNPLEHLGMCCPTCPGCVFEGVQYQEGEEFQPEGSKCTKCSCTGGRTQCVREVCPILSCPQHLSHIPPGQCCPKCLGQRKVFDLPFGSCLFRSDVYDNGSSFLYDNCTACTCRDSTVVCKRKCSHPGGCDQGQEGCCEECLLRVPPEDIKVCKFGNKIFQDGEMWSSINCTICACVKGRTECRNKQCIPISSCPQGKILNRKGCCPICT

Binder: B1
- Kd [1]: 68.4 nM
- koff [1]: 0.000203 s⁻¹
- kon [1]: 2970 M⁻¹ s⁻¹
- Kd [2]: 0.55 nM
- koff [2]: 0.000228 s⁻¹
- kon [2]: 415000 M⁻¹ s⁻¹

Binder: B2
- Kd [3]: 0.2 nM
- koff [3]: 8.22e-05 s⁻¹
- kon [3]: 404000 M⁻¹ s⁻¹

Binder: B3
- binding result [4]: binds
